Measured values as given in the supplement of paper PMC10899765.

Legend:
Conditions in all cases: 20 nM; 72 h
MCF10A [1] = test: 5+ nucleoli phenotype percent effect (relative to siNT 0% and siKIF11 100%); higher = more cells with five or more nucleoli
Description: (§1)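 After 72 h, cells were fixed and stained with Hoechst and anti-fibrillarin, and nucleoli per nucleus were counted with CellProfiler. Values are plate-adjusted percent effect for the one-nucleolus and 5+ nucleoli phenotypes, normalised to siNT (0%) and to the positive controls siNOL11 or siKIF11 (100%), as the mean of biological triplicates. Percent viability is the nuclei count relative to siNT.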

MCF10A [2] = test: one-nucleolus phenotype percent effect (relative to siNT 0% and siNOL11 100%); higher = more cells with one nucleolus (ribosome biogenesis inhibition)
Description: as §1

MCF10A [3] = test: percent viability (nuclei count relative to siNT); higher = more viable cells
Description: as §1

| Sequence | 5+ nucleoli phenotype percent effect (MCF10A [1]) [%] | one-nucleolus phenotype percent effect (MCF10A [2]) [%] | percent viability (MCF10A [3]) [%] |
| --- | --- | --- | --- |
| UAGGGAUGGGAGGCCAGGAUGA [hsa-miR-6757-5p] | 2.44 | 3.26 | 41.1 |
| UAGGGGAAAAGUCCUGAUCCGG [hsa-miR-6783-5p] | 18.2 | -20.2 | 78.4 |
| UAGGGGCAGCAGAGGACCUGGG [hsa-miR-4688] | 8.84 | 23.4 | 17.5 |
| UAGGGGGCGGCUUGUGGAGUGU [hsa-miR-6805-5p] | 0.0052 | 18.2 | 27 |
| UAGGGGGUGGCAGGCUGGCC [hsa-miR-6732-5p] | -15.7 | 17.1 | 33.3 |
| UAGGGGUGGGGGAAUUCAGGGGUGU [hsa-miR-6782-5p] | 1.01 | -3.68 | 26.5 |
| UAGGGUACUCAGAGCAAGUUGU [hsa-miR-6841-5p] | 14.6 | -4.08 | 63.6 |
| UAGGGUAGACACUGACAACGUU [hsa-miR-6755-5p] | -14.8 | 25 | 19.9 |
| UAGGUAGAGUGUGAGGAGGAGGUC [hsa-miR-6831-5p] | 27.5 | -21 | 53.8 |
| UAGGUAGUUUCAUGUUGUUGGG [hsa-miR-196a-5p] | 23.8 | -16.9 | 33.5 |
| UAGGUAGUUUCCUGUUGUUGGG [hsa-miR-196b-5p] | 54.4 | -8.68 | 41.4 |
| UAGGUGGCAGAGGAGGGACUUCA [hsa-miR-6865-5p] | -3.22 | 20.5 | 11.7 |
| UAGGUGGCGCCGGAGGAGUCAUU [hsa-miR-6815-5p] | -6.84 | 20.3 | 13.2 |
| UAGGUUAUCCGUGUUGCCUUCG [hsa-miR-154-5p] | -28.7 | 34.9 | 32.9 |
| UAGUACCAGUACCUUGUGUUCA [hsa-miR-624-5p] | -9.19 | -2.83 | 26.3 |
| UAGUACUGUGCAUAUCAUCUAU [hsa-miR-1278] | -12.8 | -1.62 | 73.4 |
| UAGUAGACCGUAUAGCGUACG [hsa-miR-411-5p] | 15.2 | -6.18 | 69.2 |
| UAGUCCCUUCCUUGAAGCGGUC [hsa-miR-2114-5p] | -46 | 43.8 | 25.2 |
| UAGUGAGUUAGAGAUGCAGAGCC [hsa-miR-3174] | -38.2 | 12.5 | 38.1 |
| UAGUGCAAUAUUGCUUAUAGGGU [hsa-miR-454-3p] | 54.6 | -20.8 | 121 |

| Sequence | 5+ nucleoli phenotype percent effect (MCF10A [1]) [%] | one-nucleolus phenotype percent effect (MCF10A [2]) [%] | percent viability (MCF10A [3]) [%] |
| --- | --- | --- | --- |
| UAGUGGAUGAUGCACUCUGUGC [hsa-miR-3681-5p] | -13.2 | 15.8 | 50 |
| UAGUGGUCAGAGGGCUUAUGA [hsa-miR-6718-5p] | -44.7 | 39.8 | 18.9 |
| UAGUGGUCCUAAACAUUUCACA [hsa-miR-203b-5p] | -42.9 | 58.6 | 15.6 |
| UAGUUCUUCCCUUUGCCCAAUU [hsa-miR-5584-3p] | -41 | 5.26 | 32.6 |
| UAUAAAAUGAGGGCAGUAAGAC [hsa-miR-3163] | 30.5 | -19.2 | 53 |
| UAUACAAGGGCAAGCUCUCUGU [hsa-miR-381-3p] | 3.97 | -13.7 | 90.7 |
| UAUACAAGGGCAGACUCUCUCU [hsa-miR-300] | -6.47 | -10.6 | 68.9 |
| UAUACCUCAGUUUUAUCAGGUG [hsa-miR-875-5p] | 32.3 | -18.7 | 119 |
| UAUAGAGAGCAGGAAGAUUAAUGU [hsa-miR-3976] | 31.2 | -15.3 | 78.3 |
| UAUAGGGAUUGGAGCCGUGGCG [hsa-miR-135a-3p] | 4.73 | 13.5 | 63.5 |
| UAUAUAUACAGCCAUGCACUC [hsa-miR-5011-5p] | 39.8 | -18.5 | 74.6 |
| UAUAUGGACUUUUCUGAUACAAUG [hsa-miR-8076] | 44.8 | -22.4 | 49.4 |
| UAUCAUGGAGUUGGUAAAGCAC [hsa-miR-2681-3p] | 14.2 | -14.9 | 62.4 |
| UAUCCAGCUUGUUACUAUAUGC [hsa-miR-5586-5p] | 7.77 | -0.119 | 47.2 |
| UAUCGUAUCGUAUUGUAUUGU [hsa-miR-5686] | 39.8 | -22.7 | 93.8 |
| UAUCUGCUGGGCUUUCUGGUGUU [hsa-miR-4686] | -43.3 | 43.6 | 34.5 |
| UAUGCAUUGUAUUUUUAGGUCC [hsa-miR-586] | 54 | -12.9 | 94.9 |
| UAUGGAAAGACUUUGCCACUCU [hsa-miR-3688-3p] | 57.1 | -10.8 | 54 |
| UAUGGAGGUUCUAGACCAUGUU [hsa-miR-4802-5p] | 7.79 | 26.9 | 22.7 |
| UAUGGAGUGGACUUUCAGCUGGC [hsa-miR-6514-5p] | 38.3 | -0.808 | 75 |

| Sequence | 5+ nucleoli phenotype percent effect (MCF10A [1]) [%] | one-nucleolus phenotype percent effect (MCF10A [2]) [%] | percent viability (MCF10A [3]) [%] |
| --- | --- | --- | --- |
| UAUGGCUUUUCAUUCCUAUGUGA [hsa-miR-135b-5p] | -32.7 | 21.8 | 47.9 |
| UAUGGCUUUUUAUUCCUAUGUGA [hsa-miR-135a-5p] | -18.7 | -3.65 | 69 |
| UAUGGGGCUUCUGUAGAGAUUUC [hsa-miR-3675-5p] | -9.76 | 22.6 | 37.2 |
| UAUGGUACUCCUUAAGCUAAC [hsa-miR-5579-5p] | 101 | -26.5 | 86.3 |
| UAUGUAACACGGUCCACUAACC [hsa-miR-411-3p] | 22.1 | -6.25 | 76 |
| UAUGUAACAUGGUCCACUAACU [hsa-miR-379-3p] | 38.4 | -12 | 89.1 |
| UAUGUAAUAUGGUCCACAUCUU [hsa-miR-380-3p] | -13.1 | 0.458 | 90 |
| UAUGUAGUAGUCAAAGGCAUUU [hsa-miR-7852-3p] | -8.45 | -3.81 | 81.4 |
| UAUGUCCCAUCCCUCCAUCA [hsa-miR-6834-3p] | -28.7 | 21.4 | 22.7 |
| UAUGUCUGCUGACCAUCACCUU [hsa-miR-654-3p] | -34.7 | 28.2 | 38 |
| UAUGUGACCUCGGAUGAAUCA [hsa-miR-4501] | -23.6 | 40.8 | 19.8 |
| UAUGUGCCUUUGGACUACAUCG [hsa-miR-455-5p] | -19.3 | -2.17 | 44.7 |
| UAUGUGGGAUGGUAAACCGCUU [hsa-miR-299-3p] | -20.9 | 13.9 | 45.6 |
| UAUUCAGAAAGGUGCCAGUCA [hsa-miR-892c-5p] | 9.47 | -3.71 | 71.8 |
| UAUUCAGGAAGGUGUUACUUAA [hsa-miR-506-5p] | -1.47 | -9.8 | 91 |
| UAUUCAUUUAUCCCCAGCCUACA [hsa-miR-664a-3p] | 26 | -21 | 121 |
| UAUUGCACAUUACUAAGUUGCA [hsa-miR-32-5p] | 9.82 | -7.37 | 123 |
| UAUUGCACUCGUCCCGGCCUCC [hsa-miR-92b-3p] | 2.75 | -7.61 | 76.9 |
| UAUUGCACUUGUCCCGGCCUGU [hsa-miR-92a-3p] | 4.47 | -3.22 | 88.8 |
